Results from paper PMC11208740, “Structure of the human systemic RNAi defective transmembrane protein 1 (hSIDT1) reveals the conformational flexibility of its lipid binding domain” (Life Science Alliance, 2024).

Target: the molecule itself
Assay: SEC; purified hSIDT1-GFP on Superose 6 Increase 10/300 GL at 0.5 ml/min, intrinsic tryptophan fluorescence; column in 0.15 mM LMNG, 25 mM Tris-HCl pH 7.5, 200 mM NaCl; molecular weight read from a standard plot

B1: full-length human systemic RNAi defective transmembrane family member 1 (hSIDT1), C-terminal GFP-Strep-tag-II fusion (natural protein, UniProt Q9NXL6 20-827, looked up)
chain: ASPGHPAKSPRQPPAPRRDPFDAARGADFDHVYSGVVNLSTENIYSFNYTSQPDQVTAVRVYVNSSSENLNYPVLVVVRQQKEVLSWQVPLLFQGLYQRSYNYQEVSRTLCPSEATNETGPLQQLIFVDVASMAPLGAQYKLLVTKLKHFQLRTNVAFHFTASPSQPQYFLYKFPKDVDSVIIKVVSEMAYPCSVVSVQNIMCPVYDLDHNVEFNGVYQSMTKKAAITLQKKDFPGEQFFVVFVIKPEDYACGGSFFIQEKENQTWNLQRKKNLEVTIVPSIKESVYVKSSLFSVFIFLSFYLGCLLVGFVHYLRFQRKSIDGSFGSNDGSGNMVASHPIAASTPEGSNYGTIDESSSSPGRQMSSSDGGPPGQSDTDSSVEESDFDTMPDIESDKNIIRTKMFLYLSDLSRKDRRIVSKKYKIYFWNIITIAVFYALPVIQLVITYQTVVNVTGNQDICYYNFLCAHPLGVLSAFNNILSNLGHVLLGFLFLLIVLRRDILHRRALEAKDIFAVEYGIPKHFGLFYAMGIALMMEGVLSACYHVCPNYSNFQFDTSFMYMIAGLCMLKLYQTRHPDINASAYSAYASFAVVIMVTVLGVVFGKNDVWFWVIFSAIHVLASLALSTQIYYMGRFKIDLGIFRRAAMVFYTDCIQQCSRPLYMDRMVLLVVGNLVNWSFALFGLIYRPRDFASYMLGIFICNLLLYLAFYIIMKLRSSEKVLPVPLFCIVATAVMWAAALYFFFQNLSSWEGTPAESREKNRECILLDFFDDHDIWHFLSATALFFSFLVLLTLDDDLDVVRRDQIPVF
notes: human systemic RNAi defective transmembrane family member 1 (hSIDT1), full length, codon-optimized gene synthesized by GenScript, cloned into pEG BacMam; Made in cells that lack N-acetylglucosaminyltransferase I, so the protein lacks complex N-glycosylation (predicted sites N57, N67, N83, N136, N282); No cleavage of GFP-Strep-tag-II is described; Not modelled in the structure: the first 40 …
  stoichiometry N: 2
